The source of these data is US20210032299A1 (Eli Lilly, published 2021).

Starred links: 1 amine or outer side, 2 acyl side, 3 side chain; linkers in the order of their positions; H or OH if unused. Non-standard residues stand in square brackets, D forms with d. Groups on a side chain read outwards from the residue. No end group written: not given here. *: point of attachment. C20 diacid = O=C(O)CCCCCCCCCCCCCCCCCCC(=O)*; C18 diacid = O=C(O)CCCCCCCCCCCCCCCCC(=O)*; αMePhe(2-F) = C[C@](N)(Cc1ccccc1F)C(=O)O; γGlu = O=C(O)[C@H](CCC(=O)[*:2])N[*:1]; αMeF = C[C@](N)(Cc1ccccc1)C(=O)O; 4Pal = N[C@@H](Cc1ccncc1)C(=O)O; AEEA = NCCOCCOCC(=O)O; Aib = CC(C)(N)C(=O)O

The target in test [1] is T1, human GLP-1 receptor (human, UniProt P43220 24-463).
T1 construct: whole, on cells; Assayed as crude membranes of stably transfected HEK293 cells; also called hGLP1R; hGLP-1R
The test can be described thus: SPA, displacement of [125I]-GLP-1 from hGLP-1R membranes, 0.1% bacitracin. The procedure, abridged: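 Binding buffer: 25 mM HEPES pH 7.4, 2.5 mM CaCl₂, 1 mM MgCl₂, 0.1% bacitracin, 0.003% Tween-20, protease inhibitors without EDTA. Four-parameter nonlinear regression; Kᵢ given as geometric mean ± SEM, n = independent replicates run on different days.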
A general note: Displacement assays read how much labelled ligand stays bound in the presence of the test substance.

The target of test [2] is T2, human glucose-dependent insulinotropic polypeptide (GIP) receptor (human, UniProt P48546 22-466).
T2 construct: whole, on cells; Assayed as crude membranes of stably transfected CHO cells; also called hGIPR; human GIP receptor
T2 sequence (looked up): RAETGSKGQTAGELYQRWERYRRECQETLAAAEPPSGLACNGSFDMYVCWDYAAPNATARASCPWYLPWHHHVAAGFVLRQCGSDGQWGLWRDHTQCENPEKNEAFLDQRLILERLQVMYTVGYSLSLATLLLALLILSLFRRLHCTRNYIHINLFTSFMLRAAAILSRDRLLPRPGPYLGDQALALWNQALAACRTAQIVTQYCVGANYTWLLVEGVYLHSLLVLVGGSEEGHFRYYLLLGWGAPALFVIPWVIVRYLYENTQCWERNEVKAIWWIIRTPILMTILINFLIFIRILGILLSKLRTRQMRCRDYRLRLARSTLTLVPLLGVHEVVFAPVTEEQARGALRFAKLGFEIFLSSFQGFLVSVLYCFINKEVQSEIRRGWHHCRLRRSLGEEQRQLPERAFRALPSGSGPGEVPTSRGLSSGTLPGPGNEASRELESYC
The test can be described thus: SPA, displacement of [125I]-GIP from hGIPR membranes, 0.1% bacitracin.

In test [3] the target is T3, human glucagon receptor (human, UniProt P47871 26-477).
T3 construct: whole, on cells; Assayed as crude membranes of stably transfected HEK293 cells; also called hGcgR; GcgR
The test can be described thus: SPA, displacement of [125I]-Gcg from hGcgR membranes, 0.1% bacitracin. The gist of the method:
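Binding buffer: 25 mM HEPES pH 7.4, 2.5 mM CaCl₂, 1 mM MgCl₂, 0.003% Tween-20, protease inhibitors without EDTA. Counted by scintillation after 12 h incubation/settling at room temperature. Four-parameter nonlinear fit; Kᵢ given as geometric mean ± SEM of independent replicates run on different days.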

T3 sequence (P47871 26-477): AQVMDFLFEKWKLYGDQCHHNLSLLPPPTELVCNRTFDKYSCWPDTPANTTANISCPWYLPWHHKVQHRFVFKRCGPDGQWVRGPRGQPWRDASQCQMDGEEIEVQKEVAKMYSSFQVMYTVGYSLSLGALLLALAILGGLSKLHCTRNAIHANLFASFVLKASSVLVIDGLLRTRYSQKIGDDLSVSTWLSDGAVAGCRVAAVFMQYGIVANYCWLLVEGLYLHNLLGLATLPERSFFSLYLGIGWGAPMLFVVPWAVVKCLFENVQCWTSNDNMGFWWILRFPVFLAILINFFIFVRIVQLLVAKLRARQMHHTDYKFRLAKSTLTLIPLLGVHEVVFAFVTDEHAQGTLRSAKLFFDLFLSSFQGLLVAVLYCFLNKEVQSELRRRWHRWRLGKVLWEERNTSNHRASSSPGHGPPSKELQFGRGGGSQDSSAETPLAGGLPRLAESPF

B1: Example 23 (peptide)
peptide: Y[Aib]EGT[αMeF]ISDYSIALDKK([AEEA-AEEA-γGlu-C18 diacid])HQ[Aib]DFVE[4Pal]LLAGGPSSGAPPPS-NH2
modifications: N-terminus assumed
SMILES: CC[C@H](C)[C@H](NC(=O)[C@H](CO)NC(=O)[C@H](Cc1ccc(O)cc1)NC(=O)[C@H](CC(=O)O)NC(=O)[C@H](CO)NC(=O)[C@@H](NC(=O)[C@](C)(Cc1ccccc1)NC(=O)[C@@H](NC(=O)CNC(=O)[C@H](CCC(=O)O)NC(=O)C(C)(C)NC(=O)[C@@H](N)Cc1ccc(O)cc1)[C@@H](C)O)[C@@H](C)CC)C(=O)N[C@@H](C)C(=O)N[C@@H](CC(C)C)C(=O)N[C@@H](CC(=O)O)C(=O)N[C@@H](CCCCN)C(=O)N[C@@H](CCCCNC(=O)COCCOCCNC(=O)COCCOCCNC(=O)CC[C@H](NC(=O)CCCCCCCCCCCCCCCCC(=O)O)C(=O)O)C(=O)N[C@@H](Cc1c[nH]cn1)C(=O)N[C@@H](CCC(N)=O)C(=O)NC(C)(C)C(=O)N[C@@H](CC(=O)O)C(=O)N[C@@H](Cc1ccccc1)C(=O)N[C@H](C(=O)N[C@@H](CCC(=O)O)C(=O)N[C@@H](Cc1ccncc1)C(=O)N[C@@H](CC(C)C)C(=O)N[C@@H](CC(C)C)C(=O)N[C@@H](C)C(=O)NCC(=O)NCC(=O)N1CCC[C@H]1C(=O)N[C@@H](CO)C(=O)N[C@@H](CO)C(=O)NCC(=O)N[C@@H](C)C(=O)N1CCC[C@H]1C(=O)N1CCC[C@H]1C(=O)N1CCC[C@H]1C(=O)N[C@@H](CO)C(N)=O)C(C)C
Usually Ki stands for the equilibrium dissociation constant of an inhibitor or competing ligand from its target. Low values mean a stronger hold on the target, high ones a looser hold on the target. B1: the Ki in test [1] was found to be 251 nM; in test [2], 0.0341 nM; in test [3], 323 nM.

B2: Example 43 (peptide)
peptide: Y[Aib]EGT[αMeF]ISDYSIALDKK([AEEA-AEEA-γGlu-C20 diacid])HQ[Aib]DFVE[4Pal]LLEAGPSSGAPPPS-NH2
modifications: N-terminus assumed
SMILES: CC[C@H](C)[C@H](NC(=O)[C@H](CO)NC(=O)[C@H](Cc1ccc(O)cc1)NC(=O)[C@H](CC(=O)O)NC(=O)[C@H](CO)NC(=O)[C@@H](NC(=O)[C@](C)(Cc1ccccc1)NC(=O)[C@@H](NC(=O)CNC(=O)[C@H](CCC(=O)O)NC(=O)C(C)(C)NC(=O)[C@@H](N)Cc1ccc(O)cc1)[C@@H](C)O)[C@@H](C)CC)C(=O)N[C@@H](C)C(=O)N[C@@H](CC(C)C)C(=O)N[C@@H](CC(=O)O)C(=O)N[C@@H](CCCCN)C(=O)N[C@@H](CCCCNC(=O)COCCOCCNC(=O)COCCOCCNC(=O)CC[C@H](NC(=O)CCCCCCCCCCCCCCCCCCC(=O)O)C(=O)O)C(=O)N[C@@H](Cc1c[nH]cn1)C(=O)N[C@@H](CCC(N)=O)C(=O)NC(C)(C)C(=O)N[C@@H](CC(=O)O)C(=O)N[C@@H](Cc1ccccc1)C(=O)N[C@H](C(=O)N[C@@H](CCC(=O)O)C(=O)N[C@@H](Cc1ccncc1)C(=O)N[C@@H](CC(C)C)C(=O)N[C@@H](CC(C)C)C(=O)N[C@@H](CCC(=O)O)C(=O)N[C@@H](C)C(=O)NCC(=O)N1CCC[C@H]1C(=O)N[C@@H](CO)C(=O)N[C@@H](CO)C(=O)NCC(=O)N[C@@H](C)C(=O)N1CCC[C@H]1C(=O)N1CCC[C@H]1C(=O)N1CCC[C@H]1C(=O)N[C@@H](CO)C(N)=O)C(C)C
For the molecule B2, the inhibitory constant (Ki) in test [1] turned out to be 605 nM; in test [2], 0.0366 nM; in test [3], 285 nM.

B3: Example 38 (peptide)
peptide: Y[Aib]EGT[αMePhe(2-F)]ISDYSIALDKK([AEEA-AEEA-γGlu-C20 diacid])HQ[Aib]DFVE[4Pal]LLETGPSSGAPPPS-NH2
modifications: N-terminus assumed
SMILES: CC[C@H](C)[C@H](NC(=O)[C@H](CO)NC(=O)[C@H](Cc1ccc(O)cc1)NC(=O)[C@H](CC(=O)O)NC(=O)[C@H](CO)NC(=O)[C@@H](NC(=O)[C@](C)(Cc1ccccc1F)NC(=O)[C@@H](NC(=O)CNC(=O)[C@H](CCC(=O)O)NC(=O)C(C)(C)NC(=O)[C@@H](N)Cc1ccc(O)cc1)[C@@H](C)O)[C@@H](C)CC)C(=O)N[C@@H](C)C(=O)N[C@@H](CC(C)C)C(=O)N[C@@H](CC(=O)O)C(=O)N[C@@H](CCCCN)C(=O)N[C@@H](CCCCNC(=O)COCCOCCNC(=O)COCCOCCNC(=O)CC[C@H](NC(=O)CCCCCCCCCCCCCCCCCCC(=O)O)C(=O)O)C(=O)N[C@@H](Cc1c[nH]cn1)C(=O)N[C@@H](CCC(N)=O)C(=O)NC(C)(C)C(=O)N[C@@H](CC(=O)O)C(=O)N[C@@H](Cc1ccccc1)C(=O)N[C@H](C(=O)N[C@@H](CCC(=O)O)C(=O)N[C@@H](Cc1ccncc1)C(=O)N[C@@H](CC(C)C)C(=O)N[C@@H](CC(C)C)C(=O)N[C@@H](CCC(=O)O)C(=O)N[C@H](C(=O)NCC(=O)N1CCC[C@H]1C(=O)N[C@@H](CO)C(=O)N[C@@H](CO)C(=O)NCC(=O)N[C@@H](C)C(=O)N1CCC[C@H]1C(=O)N1CCC[C@H]1C(=O)N1CCC[C@H]1C(=O)N[C@@H](CO)C(N)=O)[C@@H](C)O)C(C)C
With B3, the inhibition constant (Ki) came out at 776 nM in test [1], 0.0588 nM in test [2] and 182 nM in test [3].

B4: Example 42 (peptide)
peptide: Y[Aib]EGT[αMeF]ISDYSIALDKK([AEEA-AEEA-γGlu-C20 diacid])HQ[Aib]DFVE[4Pal]LLEQGPSSGAPPPS-NH2
modifications: N-terminus assumed
SMILES: CC[C@H](C)[C@H](NC(=O)[C@H](CO)NC(=O)[C@H](Cc1ccc(O)cc1)NC(=O)[C@H](CC(=O)O)NC(=O)[C@H](CO)NC(=O)[C@@H](NC(=O)[C@](C)(Cc1ccccc1)NC(=O)[C@@H](NC(=O)CNC(=O)[C@H](CCC(=O)O)NC(=O)C(C)(C)NC(=O)[C@@H](N)Cc1ccc(O)cc1)[C@@H](C)O)[C@@H](C)CC)C(=O)N[C@@H](C)C(=O)N[C@@H](CC(C)C)C(=O)N[C@@H](CC(=O)O)C(=O)N[C@@H](CCCCN)C(=O)N[C@@H](CCCCNC(=O)COCCOCCNC(=O)COCCOCCNC(=O)CC[C@H](NC(=O)CCCCCCCCCCCCCCCCCCC(=O)O)C(=O)O)C(=O)N[C@@H](Cc1c[nH]cn1)C(=O)N[C@@H](CCC(N)=O)C(=O)NC(C)(C)C(=O)N[C@@H](CC(=O)O)C(=O)N[C@@H](Cc1ccccc1)C(=O)N[C@H](C(=O)N[C@@H](CCC(=O)O)C(=O)N[C@@H](Cc1ccncc1)C(=O)N[C@@H](CC(C)C)C(=O)N[C@@H](CC(C)C)C(=O)N[C@@H](CCC(=O)O)C(=O)N[C@@H](CCC(N)=O)C(=O)NCC(=O)N1CCC[C@H]1C(=O)N[C@@H](CO)C(=O)N[C@@H](CO)C(=O)NCC(=O)N[C@@H](C)C(=O)N1CCC[C@H]1C(=O)N1CCC[C@H]1C(=O)N1CCC[C@H]1C(=O)N[C@@H](CO)C(N)=O)C(C)C
As to B4, the results for the inhibition constant Ki in test [1], in test [2] and in test [3] were 563 nM, 0.0392 nM and 99.1 nM, respectively.

B5: Example 34 (peptide)
peptide: Y[Aib]EGT[αMePhe(2-F)]ISDYSIALDKK([AEEA-AEEA-γGlu-C20 diacid])HQ[Aib]EFVNYLLATGPSSGAPPPS-NH2
modifications: N-terminus assumed
SMILES: CC[C@H](C)[C@H](NC(=O)[C@H](CO)NC(=O)[C@H](Cc1ccc(O)cc1)NC(=O)[C@H](CC(=O)O)NC(=O)[C@H](CO)NC(=O)[C@@H](NC(=O)[C@](C)(Cc1ccccc1F)NC(=O)[C@@H](NC(=O)CNC(=O)[C@H](CCC(=O)O)NC(=O)C(C)(C)NC(=O)[C@@H](N)Cc1ccc(O)cc1)[C@@H](C)O)[C@@H](C)CC)C(=O)N[C@@H](C)C(=O)N[C@@H](CC(C)C)C(=O)N[C@@H](CC(=O)O)C(=O)N[C@@H](CCCCN)C(=O)N[C@@H](CCCCNC(=O)COCCOCCNC(=O)COCCOCCNC(=O)CC[C@H](NC(=O)CCCCCCCCCCCCCCCCCCC(=O)O)C(=O)O)C(=O)N[C@@H](Cc1c[nH]cn1)C(=O)N[C@@H](CCC(N)=O)C(=O)NC(C)(C)C(=O)N[C@@H](CCC(=O)O)C(=O)N[C@@H](Cc1ccccc1)C(=O)N[C@H](C(=O)N[C@@H](CC(N)=O)C(=O)N[C@@H](Cc1ccc(O)cc1)C(=O)N[C@@H](CC(C)C)C(=O)N[C@@H](CC(C)C)C(=O)N[C@@H](C)C(=O)N[C@H](C(=O)NCC(=O)N1CCC[C@H]1C(=O)N[C@@H](CO)C(=O)N[C@@H](CO)C(=O)NCC(=O)N[C@@H](C)C(=O)N1CCC[C@H]1C(=O)N1CCC[C@H]1C(=O)N1CCC[C@H]1C(=O)N[C@@H](CO)C(N)=O)[C@@H](C)O)C(C)C
Consider B5, for which the figures for the inhibition constant (Ki) in test [1], in test [2] and in test [3] were 201 nM, 0.034 nM and 143 nM, respectively.
